Reference: article PMC9505709, “Valorization of Biomasses from Energy Crops for the Discovery of Novel Thermophilic Glycoside Hydrolases through Metagenomic Analysis” (International Journal of Molecular Sciences, 2022)

Biological target: Aglu1, α-glucosidase of family GH31 from an unknown hyperthermophilic archaeon (unknown hyperthermophilic archaeon (metagenome; family Sulfolobaceae, unclassified genus))
Assay: SEC; gel filtration on Superose 6 10/300, isocratic 20 mM Tris HCl pH 8.0; markers thyroglobulin, apoferritin, BSA, cytochrome C; native mass 462 kDa against 80 kDa for the monomer

Aglu1, α-glucosidase of family GH31 from an unknown hyperthermophilic archaeon (enzyme)
stoichiometry N: 6
